Results published in patent publication US20210171647A1 (WUXI BIOLOGICS SHANGHAI, published 2021).

T1: human OX40, full-length, on cells (human, UniProt P43489 29-277)
T1 construct: whole, on cells; also called hPro1; cell surface human OX40
T1 sequence (looked up): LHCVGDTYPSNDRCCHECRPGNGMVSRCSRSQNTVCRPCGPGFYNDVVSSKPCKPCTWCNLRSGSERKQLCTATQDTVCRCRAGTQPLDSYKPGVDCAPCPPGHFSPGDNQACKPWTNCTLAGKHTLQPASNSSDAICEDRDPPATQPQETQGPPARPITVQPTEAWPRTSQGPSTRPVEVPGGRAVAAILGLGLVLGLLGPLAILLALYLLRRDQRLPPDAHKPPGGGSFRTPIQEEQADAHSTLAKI

T2: human OX40 extracellular domain (ECD) protein (human, UniProt P43489 29-214)
T2 construct: extracellular domain; also called human OX40 ECD; human OX40 protein; not shown: human Fc or His tag
T2 sequence (looked up): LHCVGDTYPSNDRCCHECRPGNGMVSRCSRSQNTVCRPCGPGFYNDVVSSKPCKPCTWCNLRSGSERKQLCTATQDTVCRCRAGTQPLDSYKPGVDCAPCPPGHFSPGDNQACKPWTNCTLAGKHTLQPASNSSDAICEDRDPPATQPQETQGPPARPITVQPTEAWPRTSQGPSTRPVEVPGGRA

T3: human CD271 ECD (human, UniProt P08138 29-250)
T3 construct: extracellular domain
T3 sequence (looked up): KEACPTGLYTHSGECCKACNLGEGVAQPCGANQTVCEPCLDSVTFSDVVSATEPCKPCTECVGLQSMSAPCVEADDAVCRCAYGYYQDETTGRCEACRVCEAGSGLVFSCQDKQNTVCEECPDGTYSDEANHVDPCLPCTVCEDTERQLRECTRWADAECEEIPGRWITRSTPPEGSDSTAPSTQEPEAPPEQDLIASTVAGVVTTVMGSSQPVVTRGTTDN

T4: mouse OX40 (mPro1) on transfected 293F cells (mouse, UniProt P47741 20-272)
T4 construct: whole, on cells
T4 sequence (looked up): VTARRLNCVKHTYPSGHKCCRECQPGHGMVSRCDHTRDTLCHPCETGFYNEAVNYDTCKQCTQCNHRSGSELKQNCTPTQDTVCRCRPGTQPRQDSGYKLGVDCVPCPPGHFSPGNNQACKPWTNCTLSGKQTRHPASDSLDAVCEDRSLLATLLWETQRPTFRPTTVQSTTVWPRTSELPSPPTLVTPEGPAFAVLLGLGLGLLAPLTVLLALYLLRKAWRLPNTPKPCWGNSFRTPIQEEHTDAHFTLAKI


Legend:
[1] = molecular target: T5, rhesus monkey OX40 on transfected 293F cells (rhesus monkey); assay: flow cytometry on rhesus monkey OX40 transfected 293F cells
T5 construct: whole, on cells
Method: Testing antibodies were serially diluted in wash buffer (1×PBS/1% BSA) and incubated with cells at 4° C. for 1 h. After washing with 1×PB S/1% BSA, the secondary antibody goat anti-human IgG Fc-PE (Jackson ImmunoResearch Lab) was applied and incubated with cells at 4° C. in the dark for 1 h. The cells were then washed and resuspended in 1×PB S/1% BSA or fixed with 4% paraformaldehyde, and then analyzed by flow cytometry (BD).

[2] = molecular target: T1, human OX40, full-length, on cells; assay: flow cytometry on human OX40 transfected CHO-K1 cells
Method: (§1) CHO-K 1 cells expressing human OX40 were transferred in to 96-well U-bottom plates (Corning) at a density of 5×10⁴ cells/mL. Testing antibodies were 1:2 serially diluted in wash buffer (1×PBS/1% BSA) and incubated with cells at 4° C. for 1 h. The secondary antibody goat anti-human IgG Fc FITC (3.2 moles FITC per mole IgG, Jackson Immunoresearch Lab) was added and incubated with cells at 4° C. in the dark for half an hour. The cells were then washed once, resuspended in 1×PBS/1% BSA and analyzed by flow cytometry (BD). Fluorescence intensity was converted to bound molecules/cell based on the quantitative beads Quantum™ MESF Kits (Bangs Laboratories, Inc.). The KD value of each antibody was calculated using Graphpad Prism5.

[3] = molecular target: T2, human OX40 extracellular domain (ECD) …; assay: epitope binning by competition against labelled BMK10 on human OX40; the antibody named in the legend box is titrated; the text describes an ELISA, the axis on the sheet reads MFI
human CD40 ECD = molecular target: T6, human CD40 ECD (human, UniProt P25942 21-193); assay: ELISA on coated ECD, one antibody concentration (not given)
T6 construct: extracellular domain
T6 sequence (P25942 21-193): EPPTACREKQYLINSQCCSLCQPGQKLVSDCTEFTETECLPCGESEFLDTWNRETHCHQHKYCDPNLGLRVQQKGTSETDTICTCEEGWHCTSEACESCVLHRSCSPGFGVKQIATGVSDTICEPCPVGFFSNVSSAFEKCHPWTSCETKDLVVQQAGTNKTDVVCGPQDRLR

human CD271 ECD = molecular target: T3, human CD271 ECD; assay: as above
Method: (§2) Human OX40, CD40, 4-1BB (CD137) and CD271 ECD were coated on plates (Nunc) overnight at 4° C. After blocking and washing, testing antibodies were diluted in blocking buffer and added to the plates and incubated at room temperature for 1 h. The plates were then washed and subsequently incubated with secondary antibody goat anti-human IgG Fc-HRP (Bethyl) for 1 h. After washing, TMB substrate was added and the interaction was stopped by 2M HCl.

human 4-1BB (CD137) ECD = molecular target: T7, human 4-1BB (CD137) ECD (human, UniProt Q07011 24-186); assay: as above
T7 construct: extracellular domain
T7 sequence (Q07011 24-186): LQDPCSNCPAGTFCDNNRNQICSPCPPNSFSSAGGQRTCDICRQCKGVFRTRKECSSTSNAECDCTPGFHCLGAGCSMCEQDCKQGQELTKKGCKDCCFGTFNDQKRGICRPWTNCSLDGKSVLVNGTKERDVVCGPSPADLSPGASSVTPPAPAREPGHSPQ
Method: as §2

[4] = molecular target: T4, mouse OX40 (mPro1) on transfected 293F …; assay: FACS, transfected 293F cells, antibody 1 ug/mL
Method: (§3) Binding of antibodies to chimeric OX40 variants was analyzed by flow cytometry. […] Cells were analyzed using flow cytometer.

[5] = molecular target: T1, human OX40, full-length, on cells; assay: FACS, transfected 293F cells, antibody 1 ug/mL
Method: as §3

[6] = molecular target: T2, human OX40 extracellular domain (ECD) …; assay: epitope binning by competition against labelled BMK7 on human OX40; the antibody named in the legend box is titrated; the text describes an ELISA, the axis on the sheet reads MFI
[7] = molecular target: T2, human OX40 extracellular domain (ECD) …; assay: SPR, Biacore T200, antibody captured, OX40 as analyte
Method: Antibodies were characterized for affinity and binding kinetics to OX40 by SPR assay using Biacore T200 (GE). […] Then various concentrations of human or monkey OX40 and running buffer were flowed through the sensor chip at a flow rate of 30 μL/min for an association phase of 180 s, followed by dissociation. The association and dissociation curve was fit by 1:1 Langmuir binding model using the BIAevaluation T200 software.

[8] = molecular target: T1, human OX40, full-length, on cells; assay: flow cytometry, CHO-K1 cells expressing human OX40, MESF beads
Method: as §1

[9] = molecular target: T2, human OX40 extracellular domain (ECD) …; assay: competition ELISA: human OX40 ECD coated, antibody titrated in a mix with a constant concentration of OX40L, bound OX40L detected at OD450
Method: Briefly, plates (Nunc) were coated with human OX40 ECD at 1 μg/mL overnight at 4° C. […] After washing, TMB substrate was added and the interaction was stopped by 2M HCl.

[10] = molecular target: T1, human OX40, full-length, on cells; assay: flow cytometry on activated human CD4+ T cells
Method: Briefly, human OX40-expressing CHO-K1 cells or activated human CD4⁺ T cells were transferred into 96-well U-bottom plates (Corning) at a density of 1×10⁵ cells/well. Testing antibodies were serially diluted in wash buffer (1×PBS/1% BSA) and incubated with cells at 4° C. for 1 h. After washing with 1×PBS/1% BSA, the secondary antibody goat anti-human IgG Fc-PE (Jackson ImmunoResearch Lab) was applied and incubated with cells at 4° C. in the dark for 1 h. The cells were then washed and resuspended in 1×PBS/1% BSA or fixed with 4% paraformaldehyde, and then analyzed by flow cytometry (BD).

[11] = molecular target: T1, human OX40, full-length, on cells; assay: flow cytometry, MFI against antibody concentration; neither the legend nor paragraph 266 names the cells, target taken as cell-surface human OX40 because the antibodies are anti-OX40

Row | EC50 (read off the curve) [1] [nM] | EC50 (read off the curve) [2] [nM] | IC50 (read off the curve) [3] [nM] | binding result (human CD40 ECD) | binding result (human CD271 ECD) | binding result (human 4-1BB (CD137) ECD) | MFI [4] | PE + % [4] [%] | MFI [5] | PE + % [5] [%] | IC50 (read off the curve) [6] [nM] | Kd [7] [nM] | koff [7] [s⁻¹] | kon [7] [M⁻¹ s⁻¹] | Kd [8] [nM] | IC50 (read off the curve) [9] [nM] | EC50 (read off the curve) [10] [nM] | EC50 (read off the curve) [11] [nM] | Binder
1 | ~3 | ~0.6 | ~4 | no binding | no binding | no binding | 49.9 | 0.315 | 8320 | 89.3 | ~1 | 0.502 | 0.000214 | 426000 | 0.067 | ~1 |  |  | 1.214.23-u1-IgG1K (antibody, V domains shown, fully human IgG1, kappa) VH: QVQLQESGPGLVKPSGTLSLTCVVSGGSISNRNWWSWVRQPPGKGLEWIGEIFHSGNTNYNPSLKSRVTISVDKSKNQFSLKVNSVTAADTAVYYCAKSFAVALDSWGQGTLVTVSS VL: DIQLTQSPSFLSASVGDRVTITCRASQDINSYLAWCQQKPGKAPKLLIYAASSLQSGVPSRFSGTGSGTEFTLTISSLQPEDFATYYCQQLFSYPITFGQGTRLEIK
2 |  | ~1 |  | no binding | no binding | no binding |  |  |  |  | ~4 | 1.49 | 0.00128 | 860000 |  | ~3 | 1 to 2 |  | 1.7.10-u1-IgG1K (antibody, V domains shown, fully human IgG1, kappa) VH: QVHLVESGGGLVKPGGSLRLSCAASGFTFSDYYMSWIRQAPGKGLEWVSYISGSGNTIYYADSVKGRFTISRDNAKNSLYLQMNSLRADDTAVYFCARERGAAGTGWFDPWGQGTLVTVSS VL: DIQMTQSPSSVSASVGDRVTITCRASQGISSWLAWYQQKPGKAPKLLIYAASSLQGGVPSRFSGSGSGTDFTLTISSLQPEDFATYYCQQVNSFPWTFGQGTKVEIK
3 |  |  |  | no binding | no binding | no binding |  |  |  |  | ~4 | 1.16 | 0.000451 | 390000 |  | ~3 | ~2 |  | 1.186.19-u1-IgG1K (antibody, V domains shown, fully human IgG1, kappa) VH: QVHLVESGGGLVKPGGSLRLSCAASGFTFSDYYMGWIRQAPGQGLEWVSYISGSGNTIYYADSVKGRFTISRDNAKNSLYLQMNSLRADDTAVYFCAKERGAAGAGWFDPWGQGTLVTVSS VL: DIQMTQSPSSVSASVGDRVTITCRASQGISSWLAWYQQKPGKAPKLLIYAASSLQGGVPSRFSGSGSGTDFTLTISSLQPEDFATYHCQQVNSFPWTFGQGTKVEIK
4 |  |  |  | no binding | no binding | no binding |  |  |  |  |  | 0.461 | 0.000243 | 526000 |  | ~1 |  | ~0.8 | 1.62.3-u1-IgG1K (antibody, V domains shown, fully human IgG1, kappa) VH: QVQLQESGPGLVKPSQTLSLTCTVSGGSISNGGYYWSWIRQHPGKGLEWIGYIYYSGSTYYNPSLKSRVTISVDTSKNQFSLKLSSVTAADTAVYYCARDEWELRGFDYWGQGTLVTVSS VL: not shown
5 |  | ~0.9 |  |  |  |  |  |  |  |  |  | 2.08 | 0.00145 | 697000 |  |  | ~0.8 | ~2 | 1.62.3-u1-3-IgG1K (antibody, V domains shown, fully human IgG1, kappa; PTM variant of 1.62.3-u1-IgG1K (G to A in CDRH1, C to S in CDRL1)) VH: QVQLQESGPGLVKPSQTLSLTCTVSGGSISNAGYYWSWIRQHPGKGLEWIGYIYYSGSTYYNPSLKSRVTISVDTSKNQFSLKLSSVTAADTAVYYCARDEWELRGFDYWGQGTLVTVSS VL: not shown
